Usually IC50 stands for the concentration that inhibits the measured activity by half. A low value points to higher potency.

In patent US20240424129A1, “RECOMBINANT FUSION ANTIBODY, AND ANTIBODY-DRUG CONJUGATE AND USE THEREOF” (SUN YAT-SEN UNIVERSITY, priority 2021, published 2024) one finds IC50 data, which are given here for 24 molecules.

This experiment deals with SKBR3 cells. Briefly: In-vitro cytotoxicity, CCK8 cell viability. Type of experiment: cell-based, human. Conditions: SKBR3, 48 h, CCK8, mean n=3; Table 7. The method, then:
In this example, human breast cancer cell line SKBR3 with high expression of HER2 and human ovarian cancer cell line SKOV3 with high expression of HER2 were chosen to evaluate the ability of the recombinant-fusion-antibody-drug conjugates to inhibit the growth of cancer cells. The recombinant-fusion-antibody-drug conjugates of different concentrations were added to a 96-well plate seeded with SKBR3 or SKOV3 cells. After treatment for 48 h, the viability of cells was calculated using a CCK8 kit.
Cell viability was measured using different concentrations of MMAF, VHH0-MMAF, or different recombinant-fusion-nanobody-drug conjugates (fused VHH1-MMAF to fused VHH26-MMAF). The half-maximal inhibitory concentration IC50 was calculated (FIGS. 14A-14C, and Table 7). FIGS. 14A, 14B and 14C respectively show the viability of SKBR3 cells treated with the recombinant-fusion-nanobody-drug conjugates, including fused VHH1-MMAF to fused VHH6-MMAF, fused VHH7-MMAF to fused VHH22-MMAF, and fused VHH23-MMAF to fused VHH26-MMAF. […] Data are expressed as the mean (n=3).
SKBR3 and SKOV3 cells were chosen to evaluate the ability of the recombinant-fusion-full-length-antibody-drug conjugates to inhibit the growth of cancer cells. […] The half-maximal inhibitory concentration IC50 was calculated.

B1: Fused VHH17-MMAF (conjugate)
VHH: EVQLVESGGGLVQAGGSLRLSCAASGITFSINTMGWYRQAPGKQRELVALISSIGDTYYADSVKGRFTISRDNAKNTVYLQMNCLKPEDTAVYYCKRFRTAAQGTDYWGQGTQVTVSSHHHHHHLPETGGGRRRSDEDLLHI
Take B1: it took 0.165 nM to reach half-maximal inhibition (IC50).

B2: Fused VHH21-MMAF (conjugate)
VHH: EVQLVESGGGLVQAGGSLRLSCAASGITFSINTMGWYRQAPGKQRELVALISSIGDTYYADSVKGRFTISRDNAKNTVYLQMNCLKPEDTAVYYCKRFRTAAQGTDYWGQGTQVTVSSHHHHHHLPETGGGRRLRKSFHDDSDEDLLHI
On to B2, for which the IC50 was 0.016 nM.

B3: Fused VHH22-MMAF (conjugate)
VHH: EVQLVESGGGLVQAGGSLRLSCAASGITFSINTMGWYRQAPGKQRELVALISSIGDTYYADSVKGRFTISRDNAKNTVYLQMNCLKPEDTAVYYCKRFRTAAQGTDYWGQGTQVTVSSHHHHHHLPETGGGRRRRKSFHDDSDEDLLHI
B3 came in with an IC50 of 0.014 nM.

B4: Fused VHH26-MMAF (conjugate)
VHH: EVQLVESGGGLVQAGGSLRLSCAASGITFSINTMGWYRQAPGKQRELVALISSIGDTYYADSVKGRFTISRDNAKNTVYLQMNCLKPEDTAVYYCKRFRTAAQGTDYWGQGTQVTVSSHHHHHHHLPETGGGRRLRKHHHAGYEQF
In the case of B4, 0.095 nM corresponded to half-maximal inhibition (IC50).

B5: Fused VHH18-MMAF (conjugate)
VHH: EVQLVESGGGLVQAGGSLRLSCAASGITFSINTMGWYRQAPGKQRELVALISSIGDTYYADSVKGRFTISRDNAKNTVYLQMNCLKPEDTAVYYCKRFRTAAQGTDYWGQGTQVTVSSHHHHHHLPETGGGRRLRSDEDLLHI
The molecule B5 registered an IC50 of 0.394 nM.

B6: Fused VHH2-MMAF (conjugate)
VHH: EVQLVESGGGLVQAGGSLRLSCAASGITFSINTMGWYRQAPGKQRELVALISSIGDTYYADSVKGRFTISRDNAKNTVYLQMNCLKPEDTAVYYCKRFRTAAQGTDYWGQGTQVTVSSHHHHHHLPETGGGRRRASVSLLDDELMSL
For the molecule B6, 0.126 nM corresponded to half-maximal inhibition (IC50).

B7: Fused VHH5-MMAF (conjugate)
VHH: EVQLVESGGGLVQAGGSLRLSCAASGITFSINTMGWYRQAPGKQRELVALISSIGDTYYADSVKGRFTISRDNAKNTVYLQMNCLKPEDTAVYYCKRFRTAAQGTDYWGQGTQVTVSSHHHHHHLPETGGGVQNPSADRNLLDL
The molecule B7 came in with an IC50 of 0.791 nM.

B8: Fused VHH13-MMAF (conjugate)
VHH: EVQLVESGGGLVQAGGSLRLSCAASGITFSINTMGWYRQAPGKQRELVALISSIGDTYYADSVKGRFTISRDNAKNTVYLQMNCLKPEDTAVYYCKRFRTAAQGTDYWGQGTQVTVSSHHHHHHLPETGGGSFHDDSDEDLLHI
B8 registered an IC50 of 0.0798 nM.

B9: Fused VHH1-MMAF (conjugate)
VHH: EVQLVESGGGLVQAGGSLRLSCAASGITFSINTMGWYRQAPGKQRELVALISSIGDTYYADSVKGRFTISRDNAKNTVYLQMNCLKPEDTAVYYCKRFRTAAQGTDYWGQGTQVTVSSHHHHHHLPETGGGASVSLLDDELMSL
B9: the IC50 was found to be 1.34 nM.

B10: Fused VHH19-MMAF (conjugate)
VHH: EVQLVESGGGLVQAGGSLRLSCAASGITFSINTMGWYRQAPGKQRELVALISSIGDTYYADSVKGRFTISRDNAKNTVYLQMNCLKPEDTAVYYCKRFRTAAQGTDYWGQGTQVTVSSHHHHHHLPETGGGRRRRKSDEDLLHI
B10 yielded an IC50 of 0.564 nM.

B11: Fused VHH14-MMAF (conjugate)
VHH: EVQLVESGGGLVQAGGSLRLSCAASGITFSINTMGWYRQAPGKQRELVALISSIGDTYYADSVKGRFTISRDNAKNTVYLQMNCLKPEDTAVYYCKRFRTAAQGTDYWGQGTQVTVSSHHHHHHLPETGGGEESEERDDHLLPM
B11: the IC50 stood at 0.069 nM.

B12: Fused VHH9-MMAF (conjugate)
VHH: EVQLVESGGGLVQAGGSLRLSCAASGITFSINTMGWYRQAPGKQRELVALISSIGDTYYADSVKGRFTISRDNAKNTVYLQMNCLKPEDTAVYYCKRFRTAAQGTDYWGQGTQVTVSSHHHHHHGGGSDEDLLHI
Molecule B12 came in with an IC50 of 0.294 nM.

B13: Fused VHH3-MMAF (conjugate)
VHH: EVQLVESGGGLVQAGGSLRLSCAASGITFSINTMGWYRQAPGKQRELVALISSIGDTYYADSVKGRFTISRDNAKNTVYLQMNCLKPEDTAVYYCKRFRTAAQGTDYWGQGTQVTVSSHHHHHHLPETGGGASVSLLDDEL
On to B13, for which inhibition was half-maximal at 0.109 nM (IC50).

B14: Fused VHH16-MMAF (conjugate)
VHH: EVQLVESGGGLVQAGGSLRLSCAASGITFSINTMGWYRQAPGKQRELVALISSIGDTYYADSVKGRFTISRDNAKNTVYLQMNCLKPEDTAVYYCKRFRTAAQGTDYWGQGTQVTVSSHHHHHHLPETGGGPAAYRGVGDD
Regarding B14, the IC50 stood at 0.027 nM.

B15: Fused VHH15-MMAF (conjugate)
VHH: EVQLVESGGGLVQAGGSLRLSCAASGITFSINTMGWYRQAPGKQRELVALISSIGDTYYADSVKGRFTISRDNAKNTVYLQMNCLKPEDTAVYYCKRFRTAAQGTDYWGQGTQVTVSSHHHHHHLPETGGGSYKYSKVNKE
For B15, the IC50 was 0.051 nM.

B16: Fused VHH23-MMAF (conjugate)
VHH: EVQLVESGGGLVQAGGSLRLSCAASGITFSINTMGWYRQAPGKQRELVALISSIGDTYYADSVKGRFTISRDNAKNTVYLQMNCLKPEDTAVYYCKRFRTAAQGTDYWGQGTQVTVSSHHHHHHHLPETGGGRKRSHAGYQTI
B16 registered an IC50 of 0.098 nM.

B17: Fused VHH20-MMAF (conjugate)
VHH: EVQLVESGGGLVQAGGSLRLSCAASGITFSINTMGWYRQAPGKQRELVALISSIGDTYYADSVKGRFTISRDNAKNTVYLQMNCLKPEDTAVYYCKRFRTAAQGTDYWGQGTQVTVSSHHHHHHLPETGGGRRRSFHDDSDEDLLHI
For the molecule B17, the IC50 amounted to 0.038 nM.

B18: Fused VHH10-MMAF (conjugate)
VHH: EVQLVESGGGLVQAGGSLRLSCAASGITFSINTMGWYRQAPGKQRELVALISSIGDTYYADSVKGRFTISRDNAKNTVYLQMNCLKPEDTAVYYCKRFRTAAQGTDYWGQGTQVTVSSHHHHHHGGGGGSDEDLLHI
The molecule B18 came in with an IC50 of 0.232 nM.

B19: Fused VHH11-MMAF (conjugate)
VHH: EVQLVESGGGLVQAGGSLRLSCAASGITFSINTMGWYRQAPGKQRELVALISSIGDTYYADSVKGRFTISRDNAKNTVYLQMNCLKPEDTAVYYCKRFRTAAQGTDYWGQGTQVTVSSHHHHHHGGGGSSDEDLLHI
The molecule B19 yielded an IC50 of 0.16 nM.

B20: Fused VHH25-MMAF (conjugate)
VHH: EVQLVESGGGLVQAGGSLRLSCAASGITFSINTMGWYRQAPGKQRELVALISSIGDTYYADSVKGRFTISRDNAKNTVYLQMNCLKPEDTAVYYCKRFRTAAQGTDYWGQGTQVTVSSHHHHHHHLPETGGGKHHHAGYEQF
B20 came in with an IC50 of 0.466 nM.

B21: Fused VHH4-MMAF (conjugate)
VHH: EVQLVESGGGLVQAGGSLRLSCAASGITFSINTMGWYRQAPGKQRELVALISSIGDTYYADSVKGRFTISRDNAKNTVYLQMNCLKPEDTAVYYCKRFRTAAQGTDYWGQGTQVTVSSHHHHHHHLPETGGGASSGLDDLDLLGK
With B21, the IC50 came out at 0.885 nM.

B22: Fused VHH6-MMAF (conjugate)
VHH: EVQLVESGGGLVQAGGSLRLSCAASGITFSINTMGWYRQAPGKQRELVALISSIGDTYYADSVKGRFTISRDNAKNTVYLQMNCLKPEDTAVYYCKRFRTAAQGTDYWGQGTQVTVSSHHHHHHHLPETGGGNALSWLDEELLCL
B22 had an IC50 of 0.791 nM.

B23: Fused VHH12-MMAF (conjugate)
VHH: EVQLVESGGGLVQAGGSLRLSCAASGITFSINTMGWYRQAPGKQRELVALISSIGDTYYADSVKGRFTISRDNAKNTVYLQMNCLKPEDTAVYYCKRFRTAAQGTDYWGQGTQVTVSSHHHHHHGGGGSGGGGSGGGGSSDEDLLHI
Consider B23, for which the midpoint of inhibition, the IC50, lay at 0.14 nM.

B24: Fused VHH24-MMAF (conjugate)
VHH: EVQLVESGGGLVQAGGSLRLSCAASGITFSINTMGWYRQAPGKQRELVALISSIGDTYYADSVKGRFTISRDNAKNTVYLQMNCLKPEDTAVYYCKRFRTAAQGTDYWGQGTQVTVSSHHHHHHHLPETGGGRRRRKRKRSHAGYQTI
In turn, B24 gave an IC50 of 0.128 nM.
